Measurements taken from the supplement of paper PMC10567573.

B1: KCTD10 (parent)
chain: SSKEEQKLIATSNKPAVKLLYNRS
B2: PRAME (parent)
chain: KKLKIFAMPMQDIKMILKMVQLDS

Variants of: B1
Assay: protein stability index of a GFP-peptide fusion (GPS, HEK-293T) (PSI 1-6); higher = more stable
Details: c terminus: a fixed tail appended
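Note: lentivirally expressed fusions sorted by FACS into six bins by GFP to DsRed ratio, PSI derived from sequencing read proportions per bin multiplied by bin number.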

Protein stability index of substitutions, site by site:
S24: K 4.7; W 2.6; M 3.52; E 4.55; P 4.09; Q 4.17; T 4.21; G 4.04; C 3.25; V 3.5; N 4.2; F 3.52; H 3.56; R 4.46; L 3.4; A 3.65; Y 3.48; I 3.22; D 4.45
Y21: P 4.07; F 3.75; D 4.93; T 4.54; A 4.33; M 4.18; K 4.68; I 4.13; H 4.46; Q 4.46; G 4.97; C 4.73; N 4.58; W 4.05; R 4.42; L 4.06; S 4.33; E 4.25; V 3.67
L20: W 3.35; Y 3.82
N22: H 4.01; G 4; T 4.12; M 2.92; Q 4.09; P 3.83; V 3.54; E 4.22; R 4.15; K 4.16; W 2.73; Y 2.96; L 3.14; C 3.7; D 4.55; F 3.17; A 3.84; I 2.71; S 3.41
R23: Q 4.01; I 3.37; F 3.29; T 3.7; C 3.76; M 3.35; P 4.21; K 4.29; S 4.13; W 3.15; Y 3.32; G 3.75; H 3.85; V 3.74; L 3.03; E 4.63; N 4.21; A 3.99; D 4.71

Variants of: B2
Assay: as above
Details: c terminus: a fixed tail appended

Protein stability index, by site and new letter:
I13: N 1.54; Y 4.03; D 2.66; K 1.44; V 3.55; A 2.39; P 1.32; Q 1.93; W 1.03; H 1.84; T 1.64; E 1.65; S 2.45; F 2.23; R 2.96; M 2.88
I16: E 1.47; G 2.32; K 1.69; C 2.5; N 1.23; Q 1.6; L 1.71; H 2.66; T 3.06; W 2.79; F 3.41; Y 3.04; P 1.63; D 1.73; V 2.48; S 3.21; R 1.75
K14: D 3.25; G 2.88; N 3.16; P 3.66; Y 2.42; E 2.98; H 3.17; T 1.64; R 1.65; V 2.44; C 2.52; Q 2.64; S 1.59; I 3.61
K1: Y 1.86; M 2.68; C 2.92; R 3.39; H 3.51; V 2.08; A 3.05; P 3.89; D 3.38; L 2.86; Q 2.55; E 2.31; F 4.97; N 3.99; T 3.61; S 3.56
K18: A 3.37
M10: T 2.93; K 2.06; A 1.93; D 2.39; H 2.12; E 3.14; N 2.7; P 2.72; C 2.5; V 3.74; Q 1.93; Y 2.52; R 2.7; G 3.5
Q11: N 2.79; M 2.31; V 2.19; D 2.47; F 3.43; W 3.08; L 2.85; K 3.32; A 3.71; Y 3.22; G 3.84; I 2.57; S 2.52; P 3.82; H 3.43; R 4.36; T 2.39; C 2.32
F6: Q 1.59; W 4.71; K 2.72; L 3.92; C 3.09; R 3.11; D 1.26; A 2.77; M 1.84; T 2.2; G 2.55; E 1.52; N 1.3
L3: I 1.63; W 2.03; M 4.28; R 2.1; D 3.34; C 2.1; Y 4.33; H 3.6; N 2.82; E 1.06; S 2.92
P9: Y 1.43; C 2.96; N 1.79; F 2.42; T 4.36; L 1.62; W 4.76; I 2.11; H 2.22; V 2.94
K4: T 3.69; S 3.49; W 2.87; C 2.4; V 3.08; R 1.99; N 1.6; E 2.02; H 4.52; I 3.41; F 2.44; A 2.11; P 2.85; M 3.45; G 4.41; Q 3.25; D 1.92
M8: H 3.92; N 3.02; S 2.46; P 1.72; R 3.05; W 4.52; T 2.71; K 2.42; C 4.6; D 3.23; F 2.88; E 1.39; A 2.02; L 2.91; V 3.54
K2: M 1.79; I 3.39; F 2.09; S 2.94; T 2.9; R 1.59; A 2.69; V 2.36; L 2.34; Y 3.88; G 2.86; P 2.61; N 4.46; D 3.31; Q 3.53; H 3.33
D12: C 3.07; T 3.29; W 3.37; N 2.5; E 2.5; R 2.17; F 3.57; I 1.63; L 2.29; M 4.16; Y 3.17; Q 4.16; K 2.75; A 2.14; P 3.3
L17: A 2.66; I 2.19; V 2.64; C 2.73; P 2.27; K 2.11; R 1.75; N 1.5; G 1.71; S 2.1; H 2.39; M 2.59; E 2.04; Y 3.8; Q 1.62; W 2.06; D 1.88; T 1.12
I5: V 3.29; H 1.77; A 3.02; K 4.37; E 3.63; D 1.82; G 4.35; Y 2.6; N 4.02; R 2.43; P 2.55; M 3.17; F 2.77; C 2.65; T 2.5
M15: P 1.81; G 2.96; R 2.25; D 2.22; A 2.66; I 2.09; C 2.02; V 2.85; T 2.15; N 1.59; Q 1; K 3.85; F 2.51; H 3.17; E 2.36
A7: D 3.87; C 2.66; I 3.67; H 2.52; M 2.6; S 3.04; Y 4.92; K 3.26; R 2.61; N 2.46; Q 2; W 3.77; G 1.38; P 2.85; V 2.83
